From publication PMC2820527

Target: SmTK4-SH2SH2 (tandem SH2-domain of SmTK4 as a fusion protein with the Gal4-BD) (Schistosoma mansoni) (UniProt Q8WPV5)
Assay: two-hybrid; beta-Gal liquid assay (ONPG) in AH109, relative binding strength; bait plasmid co-expresses the SmTK3 TK-domain (additional phosphorylation)

fold increase of the interaction (β-Gal liquid assay) with the SmTK3 TK-domain against without it: 5 fold
Substance: SmTK6 prey clone (novel schistosome Src kinase SmTK6, partial, Gal4-AD fusion) (from UniProt C5J9R9 1-565) (domain or fragment)
